# Molecular target: PHR1-His (UniProt Q94CL7 1-409)
# Assay: EMSA; without SnRK1 (unphosphorylated); 10 mM Tris-HCl pH 8.0, 100 mM NaCl, 10% glycerol, 2 mM DTT, 0.05% NP-40; 0.5 ug protein in 30 ul, 22 C, 30 min; 4.5% acrylamide gel, 0.5x TBE
# Details: protein: recombinant; tags: His (pET28b(+)); chain copies: 2; label: 32P 5' end label on sense strand (T4 PNK); blunt
# PHR1-His, sequence (Q94CL7 whole entry): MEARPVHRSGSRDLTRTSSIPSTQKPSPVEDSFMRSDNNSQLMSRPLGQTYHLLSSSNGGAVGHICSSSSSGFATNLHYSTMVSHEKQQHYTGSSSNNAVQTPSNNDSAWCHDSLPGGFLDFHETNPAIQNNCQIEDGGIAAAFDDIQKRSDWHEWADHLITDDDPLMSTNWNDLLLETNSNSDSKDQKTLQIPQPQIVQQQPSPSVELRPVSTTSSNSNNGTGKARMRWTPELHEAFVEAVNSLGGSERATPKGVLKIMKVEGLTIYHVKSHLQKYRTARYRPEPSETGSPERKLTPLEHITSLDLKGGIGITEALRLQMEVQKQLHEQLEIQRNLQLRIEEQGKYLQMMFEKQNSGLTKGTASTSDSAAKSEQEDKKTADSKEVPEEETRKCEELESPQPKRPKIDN
binder,measurement,value
AtIPS1 P1BS probe (dsDNA) DNA 1: CAATTTTGGTAACGGCATATTCCATCGGATGATCCAAAATTCTCAAAA DNA 2: TTTTGAGAATTTTGGATCATCCGATGGAATATGCCGTTACCAAAATTG,binding result,binds
